In patent US20110263454A1, “Methods of Identifying Functional Characteristics of Promoters, Transcription Modifying Proteins and Transcription Modulating Agents” (Salk Institute for Biological Studies, priority 2008, published 2011):

How the values were obtained:
hCAR promoter = experiment: NHR-promoter luciferase screen, hCAR promoter; type: cell-based, human; settings: for luciferase activity normalized to lacZ activity and to a control, hCAR: hCAR promoter-luciferase, CV-1 cells, NHR +/- ligand, control = 1.00; for Luc. act., normalized to lacZ / Normalized Luc. act., normalized to control: hCAR promoter, HR/ligand component
How it was run: (§1)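 CV-1 cells were co-transfected with 50 ng NHR (homodimer or NHR/RXR heterodimer), 100 ng promoter-luciferase construct and 50 ng LacZ. Luciferase was normalized to LacZ and to a no-NHR/no-ligand control.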

mPgc1b promoter = experiment: NHR-promoter luciferase screen, mPgc1b promoter; type: cell-based, mouse; settings: for Luc. act., normalized to lacZ / Normalized Luc. act., normalized to control: PGC1b promoter reporter, co-transfected HR, without or with its ligand; for Normalized Luc. act., normalized to control: relative to control; for luciferase activity normalized to lacZ activity and to a control, mPgc1b: mPgc1b promoter-luciferase, CV-1 cells, NHR +/- ligand, control = 1.00
How it was run: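 CV-1 cells co-transfected with NHR homodimer or NHR/RXR heterodimer (pcDNA3.1, C-terminal V5H6 tag), promoter-luciferase construct and LacZ transfection control. Orphan receptors screened without ligand. Luciferase normalized to LacZ and to no-NHR/no-ligand control.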

mUCP1 promoter = experiment: NHR-promoter luciferase screen, mUCP1 promoter; type: cell-based, mouse; settings: for Luc. act., normalized to lacZ / Normalized Luc. act., normalized to control: mUCP1 promoter reporter, co-transfected HR, with or without its ligand; for Normalized Luc. act., normalized to control: relative to control; for luciferase activity normalized to lacZ activity and to a control, mUCP!: mUCP! promoter-luciferase, CV-1 cells, NHR +/- ligand, control = 1.00
How it was run: as §1

hPOMC promoter = experiment: NHR-promoter luciferase screen, hPOMC promoter; type: cell-based, human; settings: for Normalized Luc. act., normalized to control / Luc. act., normalized to lacZ: hPOMC promoter, HR/ligand component; for hPOMC promoter reporter activity: transcription factor +/- ligand, control = 1.00
How it was run: as §1

mUCP3 promoter = experiment: NHR-promoter luciferase screen, mUCP3 promoter; type: cell-based, mouse; settings: for Normalized Luc. act., normalized to control / Luc. act., normalized to lacZ: mUCP3 promoter reporter; for Normalized Luc. act., normalized to control: HR without or with its ligand, relative to control; for Luc. act., normalized to lacZ: hormone receptor (HR) without or with its ligand; for mUCP3 promoter reporter activity: transcription factor +/- ligand, control = 1.00
How it was run: as §1

MCP-1 promoter = experiment: NHR-promoter luciferase screen, MCP-1 promoter; type: cell-based; settings: for Normalized Luc. act., normalized to control / Luc. act., normalized to lacZ: MCP-1 promoter reporter; for Normalized Luc. act., normalized to control: HR without or with its ligand, relative to control; for mMCP-1 promoter reporter activity: transcription factor +/- ligand, control = 1.00; for Luc. act., normalized to lacZ: hormone receptor (HR) without or with its ligand
How it was run: as §1

Row | Molecule | luciferase activity normalized to lacZ activity and to a control, hCAR (hCAR promoter) | Luc. act., normalized to lacZ (hCAR promoter) | Normalized Luc. act., normalized to control (hCAR promoter) | Luc. act., normalized to lacZ (mPgc1b promoter) | Normalized Luc. act., normalized to control (mPgc1b promoter) | luciferase activity normalized to lacZ activity and to a control, mPgc1b (mPgc1b promoter) | Luc. act., normalized to lacZ (mUCP1 promoter) | Normalized Luc. act., normalized to control (mUCP1 promoter) | luciferase activity normalized to lacZ activity and to a control, mUCP! (mUCP1 promoter) | Normalized Luc. act., normalized to control (hPOMC promoter) | hPOMC promoter reporter activity (hPOMC promoter) | Normalized Luc. act., normalized to control (mUCP3 promoter) | Luc. act., normalized to lacZ (mUCP3 promoter) | mUCP3 promoter reporter activity (mUCP3 promoter) | Normalized Luc. act., normalized to control (MCP-1 promoter) | mMCP-1 promoter reporter activity (MCP-1 promoter) | Luc. act., normalized to lacZ (hPOMC promoter) | Luc. act., normalized to lacZ (MCP-1 promoter)
1 | GCNF: Germ Cell Nuclear Factor (NR6A1, GCNF1), cDNA driver (protein, UniProt Q15406 1-480, looked up) Nuclear receptor subfamily 6 …: MERDEPPPSGGGGGGGSAGFLEPPAALPPPPRNGFCQDELAELDPGTISVSDDRAEQRTCLICGDRATGLHYGIISCEGCKGFFKRSICNKRVYRCSRDKNCVMSRKQRNRCQYCRLLKCLQMGMNRKAIREDGMPGGRNKSIGPVQISEEEIERIMSGQEFEEEANHWSNHGDSDHSSPGNRASESNQPSPGSTLSSSRSVELNGFMAFREQYMGMSVPPHYQYIPHLFSYSGHSPLLPQQARSLDPQSYSLIHQLLSAEDLEPLGTPMLIEDGYAVTQAELFALLCRLADELLFRQIAWIKKLPFFCELSIKDYTCLLSSTWQELILLSSLTVYSKQIFGELADVTAKYSPSDEELHRFSDEGMEVIERLIYLYHKFHQLKVSNEEYACMKAINFLNQDIRGLTSASQLEQLNKRYWYICQDFTEYKYTHQPNRFPDLMMCLPEIRYIAGKMVNVPLEQLPLLFKVVLHSCKTSVGKE | 0.93 | 29.2 | 0.9 | 11.7 | 1.0 | 0.99 | 3.8 | 0.8 | 0.85 | 0.0 | 0.00 | 1.0 | 0.66 | 0.98 | 0.0 | 0.00 | – | –
2 | SHP: Small Heterodimer Partner (NR0B2), cDNA driver (protein, UniProt Q15466 1-257, looked up) Nuclear receptor subfamily 0 …: MSTSQPGACPCQGAASRPAILYALLSSSLKAVPRPRSRCLCRQHRPVQLCAPHRTCREALDVLAKTVAFLRNLPSFWQLPPQDQRRLLQGCWGPLFLLGLAQDAVTFEVAEAPVPSILKKILLEEPSSSGGSGQLPDRPQPSLAAVQWLQCCLESFWSLELSPKEYACLKGTILFNPDVPGLQAASHIGHLQQEAHWVLCEVLEPWCPAAQGRLTRVLLTASTLKSIPTSLLGDLFFRPIIGDVDIAGLLGDMLLLR | 0.99 | 31.3 | 1.0 | 9.0 | 0.8 | 0.76 | 4.1 | 0.9 | 0.93 | 0.4 | 0.43 | 1.1 | 0.77 | 1.15 | 1.2 | 1.22 | 1.9 | 130.4
3 | DAX-1: DAX1 (NR0B1), cDNA driver (protein, UniProt P51843 1-470, looked up) Nuclear receptor subfamily 0 …: MAGENHQWQGSILYNMLMSAKQTRAAPEAPETRLVDQCWGCSCGDEPGVGREGLLGGRNVALLYRCCFCGKDHPRQGSILYSMLTSAKQTYAAPKAPEATLGPCWGCSCGSDPGVGRAGLPGGRPVALLYRCCFCGEDHPRQGSILYSLLTSSKQTHVAPAAPEARPGGAWWDRSYFAQRPGGKEALPGGRATALLYRCCFCGEDHPQQGSTLYCVPTSTNQAQAAPEERPRAPWWDTSSGALRPVALKSPQVVCEAASAGLLKTLRFVKYLPCFQVLPLDQQLVLVRNCWASLLMLELAQDRLQFETVEVSEPSMLQKILTTRRRETGGNEPLPVPTLQHHLAPPAEARKVPSASQVQAIKCFLSKCWSLNISTKEYAYLKGTVLFNPDVPGLQCVKYIQGLQWGTQQILSEHTRMTHQGPHDRFIELNSTLFLLRFINANVIAELFFRPIIGTVSMDDMMLEMLCTKI | 1.20 | 38.0 | 1.2 | 7.4 | 0.6 | 0.62 | 6.2 | 1.4 | 1.39 | 0.6 | 0.63 | 1.3 | 0.89 | 1.31 | 1.0 | 1.02 | 2.7 | 108.9
4 | NR4a3: NR4a3 (NR4A3; NOR1), nuclear hormone receptor cDNA driver (protein, UniProt Q92570 1-626, looked up) Nuclear receptor subfamily 4 …: MPCVQAQYSPSPPGSSYAAQTYSSEYTTEIMNPDYTKLTMDLGSTEITATATTSLPSISTFVEGYSSNYELKPSCVYQMQRPLIKVEEGRAPSYHHHHHHHHHHHHHHQQQHQQPSIPPASSPEDEVLPSTSMYFKQSPPSTPTTPAFPPQAGALWDEALPSAPGCIAPGPLLDPPMKAVPTVAGARFPLFHFKPSPPHPPAPSPAGGHHLGYDPTAAAALSLPLGAAAAAGSQAAALESHPYGLPLAKRAAPLAFPPLGLTPSPTASSLLGESPSLPSPPSRSSSSGEGTCAVCGDNAACQHYGVRTCEGCKGFFKRTVQKNAKYVCLANKNCPVDKRRRNRCQYCRFQKCLSVGMVKEVVRTDSLKGRRGRLPSKPKSPLQQEPSQPSPPSPPICMMNALVRALTDSTPRDLDYSRYCPTDQAAAGTDAEHVQQFYNLLTASIDVSRSWAEKIPGFTDLPKEDQTLLIESAFLELFVLRLSIRSNTAEDKFVFCNGLVLHRLQCLRGFGEWLDSIKDFSLNLQSLNLDIQALACLSALSMITERHGLKEPKRVEELCNKITSSLKDHQSKGQALEPTESKVLGALVELRKICTLGLQRIFYLKLEDLVSPPSIIDKLFLDTLPF | 0.54 | 16.9 | 0.5 | 9.2 | 0.8 | 0.77 | 3.8 | 0.9 | 0.86 | 0.6 | 0.63 | 1.2 | 0.81 | 1.19 | 0.5 | 0.48 | 2.7 | 51.9
